Measurements taken from publication PMC7326492 (eLife, 2020).
Numbering of substitutions follows the chain as printed.

T1: monomeric extracellular domain of ACVR2B (UniProt Q13705 19-137)
T1 construct: ACVR2B, extracellular domain, monomeric
T1 sequence (looked up): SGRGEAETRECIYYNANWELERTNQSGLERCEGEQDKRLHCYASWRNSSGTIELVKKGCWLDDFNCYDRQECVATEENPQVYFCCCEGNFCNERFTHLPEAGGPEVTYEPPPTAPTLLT

T2: human ACVR2B.Fc fusion protein (human, UniProt Q13705 19-137)
T2 construct: Probably the extracellular domain (surmise); Captured on Protein A in one SPR experiment, coupled to the chip in another
T2 sequence (looked up): T1 sequence (looked up)

T3: Activin A.∆D406 (human, UniProt P08476 311-426, ∆D406)
T3 sequence: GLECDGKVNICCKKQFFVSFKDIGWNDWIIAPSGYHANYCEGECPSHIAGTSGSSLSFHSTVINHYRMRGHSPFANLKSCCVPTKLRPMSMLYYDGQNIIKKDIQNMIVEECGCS

T4: ACVR1 (UniProt Q04771 21-123)
T4 sequence (looked up): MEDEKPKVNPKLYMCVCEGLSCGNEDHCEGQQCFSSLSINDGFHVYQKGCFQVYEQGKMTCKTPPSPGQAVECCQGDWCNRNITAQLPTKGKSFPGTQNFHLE

B1: Activin A (ligand, human, UniProt P08476 311-426, looked up)
chain: GLECDGKVNICCKKQFFVSFKDIGWNDWIIAPSGYHANYCEGECPSHIAGTSGSSLSFHSTVINHYRMRGHSPFANLKSCCVPTKLRPMSMLYYDDGQNIIKKDIQNMIVEECGCS
notes: Activin A (inhibin beta A chain), human, mature region cloned downstream of the mouse Inhba pro-peptide; the mature dimer was isolated; rhActivin A from R and D Systems is named only for the in vivo implants; also called wild-type Activin A; Activin A WT; source: CHO-K1 cells expressing human Furin, stably expressed, purified (heparin, size exclusion, C4 reverse phase)
B2: human ACVR2B.Fc fusion protein (Fc fusion)
chain: T1 sequence (looked up)
B3: Activin A.Nod.F2TL (ligand)
chain: T3 sequence with G96N, Q97G, N98R
B4: Activin A.∆D406 (ligand, human, UniProt P08476 311-426, looked up)
chain: T3 sequence
notes: also called ActA.ΔD406; source: CHO-K1 cells expressing human Furin, stably expressed, purified (heparin, size exclusion, C4 reverse phase)

How the values were obtained:
ACVR1 [1] = molecular target: ACVR1 (UniProt Q04771)
[2] = molecular target: B2; experiment: SPR
[3] = molecular target: B2; experiment: SPR
[4] = molecular target: T1, monomeric extracellular domain of ACVR2B; experiment: SPR; complexes of ligand•type II receptor extracellular domain formed at 1:2.5 ratio and injected over captured ACVR1B-Fc and ACVR1-Fc; conditions: both partners purified
[5] = molecular target: T2, human ACVR2B.Fc fusion protein; experiment: SPR; Biacore 3000, CM5 chip; human ACVR2B.Fc captured on covalently immobilised Protein A; ligand 100nM-0.14 nM flowed at 100 uL/minute; 25°C; HBS-EP (10 mM Hepes, 150 mM NaCl, 3.4 mM EDTA, 0.05% polysorbate 20, pH 7.4); 1:1 binding model with mass transport limitation; conditions: both partners purified
Activin A.∆D406 [6] = molecular target: T3, Activin A.∆D406; experiment: SPR
Activin A.∆D406 [7] = molecular target: T3, Activin A.∆D406; experiment: SPR; remark: listed apart in the source
ACVR1 [8] = molecular target: T4, ACVR1; experiment: cell-based or functional assay

Row | koff [2] [s⁻¹] | Kd [3] [pM] | binding result [5] | Molecule | also measured
1 |  |  |  | Activin A (from UniProt P08476 311-426) (ligand) | IC50 of inhibition of BMP7 (12 nM)-induced Smad1/5/8 luciferase reporter signal in HEK293 cells (ACVR1 [1]): 1400 pM
2 | 8.46e-05 | 4.49 | binds | B1 | binding result [4]: binds
3 |  |  |  | B2 | koff (Activin A.∆D406 [6]): 0.000254 s⁻¹; Kd (Activin A.∆D406 [7]): 4.62 pM
4 | 0.00027 | 5.11 |  | B3 | 
5 |  |  | binds | B4 | IC50 of inhibition of BMP7 (12 nM)-induced Smad1/5/8 luciferase reporter signal in HEK293 cells (ACVR1 [8]): 20000 pM
